# Measured values: the Immune Epitope Database (IEDB)
# Target: HLA-A*02:01
# Assay: IEDB peptide-MHC binding, purified MHC/direct/fluorescence; filed as Kd, often an IC50 or EC50 that approximates it; ≥ and ≤ were set here for values at or beyond the usual limits of such assays
# Conditions: source organism: Human immunodeficiency virus 1
row,Sequence,Kd
1,SLFNAVVTL,10 nM
2,SLFNTVATV,25 nM
3,SLFNTVVTL,32 nM
4,SLYNAVATL,45 nM
5,SLYNAVVTL,10 nM
6,SLYNLVAVL,724 nM
7,SLYNTIAIL,500 nM
8,SLYNTISVL,61 nM
9,SLYNTITVL,88 nM
10,SLYNTVSTL,181 nM
11,SLYNTVVTL,20 nM
12,SVYNTVATL,283 nM
